Experimental findings from patent EP4782466A1, “FUSION PROTEIN FOR INACTIVATING CORONAVIRUS AND USE THEREOF” (priority 2023, dated 2025) are described below.

What all share (test): cell-based or functional assay
Test [1] deals with S protein of SARS-CoV-2 prototype strain (SARS-CoV-2 prototype) (UniProt P0DTC2).
Test [2] concerns the target S protein of bat-derived SARS-CoV-like coronavirus Rs3367 (bat-derived SARS-CoV-like coronavirus Rs3367).
Test [3] has as its target S protein of Human Coronavirus NL63 (Human Coronavirus NL63) (UniProt Q6Q1S2).
The target of test [4] is S protein of SARS-CoV (SARS-CoV) (UniProt P59594).
For test [5], the target named is S protein of bat-derived SARS-CoV-like coronavirus WIV1 (bat-derived SARS-CoV-like coronavirus WIV1).

Turning to “AL7E protein (ACE2-linker-EK1 fusion protein with (GGGGS)7 linker)”, in test [1], the IC50, inhibition of pseudovirus infection (Caco-2, luciferase) was found to be 0.37 nM.

As for “AL2E protein (ACE2-linker-EK1 fusion protein with (GGGGS)2 linker) (from UniProt Q9BYF1 18-615)”, in test [1], the IC50, inhibition of pseudovirus infection (Caco-2, luciferase) is 0.6 nM.

With “AL5E protein (ACE2-linker-EK1 fusion protein with (GGGGS)5 linker)”, in test [2], the EC50, inactivation of pseudovirus (Caco-2, luciferase) amounted to 10.7 nM; the Fold enhancement in activity of AL5E over ACE2 (EC50, pseudovirus inactivation) was 25.6 fold; the Fold enhancement in activity of AL5E over ACE2 (IC50, pseudovirus inhibition) came out at 42.2 fold; the IC50, inhibition of pseudovirus infection (Caco-2, luciferase) came to 5.9 nM. Also, in test [3], the EC50, inactivation of pseudovirus (Caco-2, luciferase) was 1.08 nM; the Fold enhancement in activity of AL5E over ACE2 (EC50, pseudovirus inactivation) was determined as 540 fold; the Fold enhancement in activity of AL5E over ACE2 (IC50, pseudovirus inhibition) is 34.4 fold; the IC50, inhibition of pseudovirus infection (Caco-2, luciferase) worked out at 0.83 nM. In addition, in test [4], the EC50, inactivation of pseudovirus (Caco-2, luciferase) stood at 18.1 nM; the Fold enhancement in activity of AL5E over ACE2 (EC50, pseudovirus inactivation) came to 68.1 fold; the Fold enhancement in activity of AL5E over ACE2 (IC50, pseudovirus inhibition) is 13.8 fold; the IC50, inhibition of pseudovirus infection (Caco-2, luciferase) was 0.69 nM. Further, in test [5], the EC50, inactivation of pseudovirus (Caco-2, luciferase) stood at 3.54 nM; the Fold enhancement in activity of AL5E over ACE2 (EC50, pseudovirus inactivation) was determined as 214 fold; the Fold enhancement in activity of AL5E over ACE2 (IC50, pseudovirus inhibition) is 71.2 fold; the IC50, inhibition of pseudovirus infection (Caco-2, luciferase) was 3.36 nM. In test [1], the EC50, inactivation of pseudovirus (Caco-2, luciferase) is 5.1 nM; the Fold enhancement of AL5E over ACE2 (EC50, pseudovirus inactivation) worked out at 22.2 fold; the Fold enhancement of AL5E over ACE2 (IC50, pseudovirus inhibition) stood at 26.9 fold; the IC50, inhibition of pseudovirus infection (Caco-2, luciferase) was determined as 0.26 nM.

Consider “AL6E protein (ACE2-linker-EK1 fusion protein with (GGGGS)6 linker)”, for which the IC50, inhibition of pseudovirus infection (Caco-2, luciferase) in test [1] turned out to be 0.23 nM.

As to “ACE2 protein alone (ACE2 peptidase domain alone) (from UniProt Q9BYF1 18-615) (receptor)”, the EC50, inactivation of pseudovirus (Caco-2, luciferase) in test [2] came to 274 nM; in test [4], 1240 nM; in test [5], 758 nM. The IC50, inhibition of pseudovirus infection (Caco-2, luciferase) in test [2] worked out at 249 nM; in test [4] it was 9.5 nM; in test [5], 239 nM.

As to EK1 polypeptide, the IC50, inhibition of pseudovirus infection (Caco-2, luciferase) in test [2] was found to be 1340 nM; in test [3] it was 1070 nM; in test [4], 841 nM; in test [5], 2450 nM; in test [1], 186 nM.
